What was measured:
[1] = molecular target: fluorescein-labelled p53DBD (UniProt P04637 94-312, fluorescein label (site not stated)); assay: fluorescence polarisation
p53 DNA binding domain = p53 DNA binding domain (UniProt P04637 94-312); assay: SPR
Sequence of p53 DNA binding domain (P04637 94-312): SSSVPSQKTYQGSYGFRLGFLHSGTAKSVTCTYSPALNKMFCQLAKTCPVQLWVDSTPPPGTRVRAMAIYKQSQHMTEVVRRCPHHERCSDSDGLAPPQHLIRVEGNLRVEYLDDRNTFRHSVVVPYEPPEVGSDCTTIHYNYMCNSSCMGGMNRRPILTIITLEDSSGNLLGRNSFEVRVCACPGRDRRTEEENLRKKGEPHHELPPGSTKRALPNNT

Sequence of fluorescein-labelled p53DBD (P04637 94-312): as above

B1: telethonin (natural protein, human, UniProt O15273 1-167, looked up)
chain: MATSELSCEVSEENCERREAFWAEWKDLTLSTRPEEGCSLHEEDTQRHETYHQQGQCQVLVQRSPWLMMRMGILGRGLQEYQLPYQRVLPLPIFTPAKMGATKEEREDTPIQLQELLALETALGGQCVDRQEVAEITKQLPPVVPVSKPGALRRSLSRSMSQEAQRG
Kd [1]: 2.2 µM | Kd (p53 DNA binding domain): 0.765 ± 0.03 µM

Source: paper PMC3664427 (Circulation research, 2011)
